B1: unnamed (parent)
chain 1: PHLSRQPEQPEQRALGPVSMPNLVPEVIDLTCHEAGFPPSDDEDEEG
chain 2: MPQPIEKVSVSTQTKKLSASSPRMLHRSTQTTNDGVCQSMCHDKYTKIFNDFKDRMKSDHKRETERVVREALEKLRSEMEEEKRQAVNKAVANMQGEMDRKCKQVKEKCKEEFVEEIKKLATQHKQLISQTKKKQWCYNCEEEAMYHCCWNTSYCSIKCQQEHWHAEHKRTCRRKR

In this assay the parent is B1. As to the kind of experiment: yeast two-hybrid (β-galactosidase activity). The following applies: with partner chain of the complex shown; n = 3; parent: 100; read off a plot.
For chain 1 S19A, the percent of parent worked out at 89%.
chain 1 N22A: the percent of parent amounted to 100%.
As for chain 1 M20A, the percent of parent stood at 160%.
Turning to chain 1 E26A, the percent of parent was 150%.
The result for chain 1 V27A reads 130%; that for chain 1 I28A, 140%.
In the case of chain 1 P25A, the percent of parent was 180%.
With chain 1 V24A, the percent of parent stood at 100%.

The values above are taken from article PMC6315623.
